Data as given in the supplement of paper PMC12764529.
± gives the half width of the 95% confidence interval.

How the values were obtained:
[1] = folding stability dG unfold (combined trypsin and chymotrypsin); higher = more stable
Summary of the method: (§1)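 How resistant each design was to proteolysis was captured as K50, inferred by Bayesian fitting of sequencing counts. Unfolding free energy was then derived relative to a sequence-predicted unfolded-state K50 and a shared folded-state K50, per protease or combined. Digestion used trypsin and chymotrypsin at 11 threefold-diluted concentrations plus a no-protease condition, on mini-proteins under 80 residues without cysteine in a PA-tagged cDNA display construct. Designs were kept only when AlphaFold2 dimer inter-PAE was above 15.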

[2] = folding stability dG unfold from chymotrypsin proteolysis; higher = more stable
Summary of the method: as §1

[3] = folding stability dG unfold from trypsin proteolysis; higher = more stable
Summary of the method: as §1

| Sequence | folding stability dG unfold [1] | folding stability dG unfold [2] | folding stability dG unfold [3] |
| --- | --- | --- | --- |
| MMTKEEIEKLAEELAKELEKKGYKIVKVEIEEVKPGEVKIKVDGKEITITLKDGRKLRIKVEVKKLPKEELS [r1_31_TrROS_Hall] | 3.04 ± 0.11 kcal/mol | 3.63 ± 0.11 kcal/mol | 1.97 ± 0.053 kcal/mol |
| MNIPLKEILDKAKAEGKPVVFPDGTKTLSFEPGGKATIEKPVEVPGKPGVPLETKTYTIDINEDGSVTVNDS [r1_284_JUSTAS] | -0.373 ± 0.095 kcal/mol | -0.279 ± 0.15 kcal/mol | -0.875 ± 0.17 kcal/mol |
| MNLSDPVSVAKLKKALEEIKKAIEELKKKGKKIEILAIELNDDSIKITPVTKSEEYIKKKKEEGIEIILLLS [r1_134_JUSTAS] | 1.38 ± 0.2 kcal/mol | 0.677 ± 0.37 kcal/mol | 1.52 ± 0.041 kcal/mol |
| MNVTINITVLSPDSSGYTMKATVTFPETPVTTSKEYKTSDPVSAVEEIIKELVDEENLSNATVTTYPSSRLS [r1_399_JUSTAS] | 0.0431 ± 0.19 kcal/mol | 0.377 ± 0.35 kcal/mol | -0.562 ± 0.22 kcal/mol |
| MPDISRAEIKALAEKLGLPVPDGTITIKFTYGDKTITVPVDAKKDITLGDIVEAIKKKNPNIKKIEIVAEPS [r1_135_TrMRF] | 0.907 ± 0.077 kcal/mol | 0.808 ± 0.08 kcal/mol | 0.956 ± 0.044 kcal/mol |
| MRITLEHPDIKRLTIEFRPMPDGYFRMDIKVERPDGKPVPIPFPMRYEDGKMTPEMMEQMIDEAVEEALADS [r1_124_TrROS] | 0.689 ± 0.21 kcal/mol | 0.617 ± 0.2 kcal/mol | 0.608 ± 0.077 kcal/mol |
| MRLYLVKVEIRREEVDPETGEVREEKLELTVLVREEDEEALEKAEELARKLAEEEGIKEVKVEVVELPAEES [r1_346_TrROS_Hall] | 2.47 ± 0.25 kcal/mol | 2.62 ± 0.079 kcal/mol | 2.3 ± 0.09 kcal/mol |
| MTKKTVTLPIPEPIRAAIEAGKPLPLEEIVDLVRDVVAKELGFKDVKVLSVEIKPLPNGEIVVEVTVEFPES [r1_290_TrMRF] | 2.89 ± 0.23 kcal/mol | 2.79 ± 0.16 kcal/mol | 3.09 ± 0.28 kcal/mol |
| MTLLIPLPPAFPDLTPEQVLDLLRELFLSPDEEATAEENPETGSVTVTVRRGDEEYVFTFYPDGYLVLEPGS [r1_131_TrMRF] | 2.83 ± 0.04 kcal/mol | 2.799 ± 0.016 kcal/mol | 2.85 ± 0.04 kcal/mol |
| MTVTVPPDGTVTITLTDPSGNTYTFTIPVTDPAELRARLEEAIRELFPEFEDIPVRVVAVDGPAVVVEVPLS [r1_389_JUSTAS] | 3.1 ± 0.086 kcal/mol | 3.12 ± 0.036 kcal/mol | 3.02 ± 0.12 kcal/mol |
| MVAVFEFTFKSEEELLEAAEEVARRLAAELGLPEEELEKIPIEVEVEEIGNEDGEKEYKLTIRFGFPEEFLS [r1_81_TrMRF] | 3.83 ± 0.13 kcal/mol | 3.92 ± 0.05 kcal/mol | 3.51 ± 0.13 kcal/mol |
| MVLDAGISRKDFINNKPIKVETALKKLAEILGGPNFKPKVKPSKKDYLVAVIELPDGRKLLLKDDKDIKISS [r1_168_TrMRF] | 0.377 ± 0.14 kcal/mol | -0.108 ± 0.14 kcal/mol | 0.514 ± 0.12 kcal/mol |
| MVLKVTIEITVTHPANPGKTEKLTIVVEAPTLEEALAAALEEIRRRLGLPPGAKVTVKVTVELVELPEEDLS [r1_149_TrROS_Hall] | 5.99 ± 0.5 kcal/mol | 5.63 ± 0.18 kcal/mol | 4.5 ± 0.18 kcal/mol |
| NKRIKIFIGGDDPSMAEQIQQWLQDNGYNVEVHVFTSPEDMKKAREWAEQNDIVIVIQVPPPPPKDPGDNNS [r1_497_TrROS] | 3.3 ± 0.074 kcal/mol | 3.487 ± 0.024 kcal/mol | 2.48 ± 0.12 kcal/mol |
| NWYIDIDEIKEAINDAPPGDEVELPFKFYDPDDGQKFKFRVTVEVNPNGKLTSVRIQHPGSGKPHAEINLKS [r1_165_TrROS] | 0.982 ± 0.11 kcal/mol | 1.25 ± 0.13 kcal/mol | 0.636 ± 0.07 kcal/mol |
| PEKVILVEVPAGEELTEEELKELAEALGLEVEIEKVKVTVTVTVEVTLPDGKKVKVETTETRTVVLVTVKDS [r1_238_TrROS_Hall] | 3.16 ± 0.14 kcal/mol | 3.42 ± 0.14 kcal/mol | 2.66 ± 0.077 kcal/mol |
| PFRVMVDLERDPEDGWYKVTIMVQAKDGRPITPELIENAAREIFKQGFPIKKIKLEPYPNGYVHFKIEIPLS [r1_408_TrROS] | 2.65 ± 0.064 kcal/mol | 2.88 ± 0.037 kcal/mol | 2.15 ± 0.035 kcal/mol |
| PKEIIEFAKKNGFKVKIEPVKVGSEEKAKKLAEEIKKKNNGKVFIIKNPKTGEAVYRIEIYPLKVPKNKKLS [r1_179_TrMRF] | 1.9 ± 0.43 kcal/mol | 2.1 ± 0.22 kcal/mol | 1.37 ± 0.14 kcal/mol |

| Sequence | folding stability dG unfold [1] | folding stability dG unfold [2] | folding stability dG unfold [3] |
| --- | --- | --- | --- |
| PKIEITRVEYHPNEGYYRVTVKLPGKDVSIYMGPENGMMQVYFPGNGREREFPFDSMDDAVDRAKELLKERS [r1_177_TrROS] | 1.23 ± 0.28 kcal/mol | 1.55 ± 0.11 kcal/mol | 1.33 ± 0.12 kcal/mol |
| PLTFPALVRNPLEDRWEEVTVTLHPDGTLTVTHRGRPLASVRVVTRPPPEVELVPVRDADGVERLGLRTRGS [r1_496_TrMRF] | 0.964 ± 0.074 kcal/mol | 1.21 ± 0.08 kcal/mol | 0.346 ± 0.071 kcal/mol |
| PNMKMEWIQIPPGDLNDPVKIEAPLPPGTQIMIWVHDNGNGEWRPIFTVNNDEITIKNLPDADHVWVWVIKS [r1_224_TrROS] | 2.47 ± 0.28 kcal/mol | 2.71 ± 0.1 kcal/mol | 1.83 ± 0.13 kcal/mol |
| PPPDVPVETETKTSTSTLPDGSRLTTTTTTTRAPNGYYYDTTSVTTTVAPDGTVTTTSTSTTKGPLPAALLS [r1_129_JUSTAS] | 1.5 ± 0.27 kcal/mol | 1.51 ± 0.072 kcal/mol | 1.81 ± 0.12 kcal/mol |
| PPTSPEFRKALENIKKVDIEIEPYPNDGMVRMSIELKFPDKPVEIDIHYQYDPDGKINGMWARLDGKWIPIS [r1_274_TrROS] | 1.85 ± 0.2 kcal/mol | 1.99 ± 0.079 kcal/mol | 1.1 ± 0.091 kcal/mol |
| PWRPIMITVRANPNLKVDIYPPNGPQEEIPVDSPEDALKKAQKLLPPNYPIMVKVQNEGKPIATFPFWIPPS [r1_276_TrROS] | 2.61 ± 0.52 kcal/mol | 2.41 ± 0.14 kcal/mol | 2.84 ± 0.36 kcal/mol |
| QRTVYIPIRGMPPDQMVDMIRMALRQAREKGHPNRTIRIWMPGPPEQRERARRYIKELADEPGLNVTIEGWS [r1_387_TrROS] | 1.84 ± 0.055 kcal/mol | 1.85 ± 0.08 kcal/mol | 1.71 ± 0.029 kcal/mol |
| RKIEINIWRNENHWYVRIKLEHPDGKEQELMFPMDSWDEAREFIRGILANLPPNNVKIEDIEIYPPNGQPIS [r1_169_TrROS] | 3.87 ± 0.069 kcal/mol | 4.329 ± 0.023 kcal/mol | 2.85 ± 0.076 kcal/mol |
| SAAAAVAAAVAATLEALLPPGYRITAVTAEVAPDGTVTIPVTVEGPDGVPTLVVVTVDLATGEITVTVFGSA [r9_219_TrMRF] | 4.22 ± 0.22 kcal/mol | 4.63 ± 0.21 kcal/mol | 3.17 ± 0.16 kcal/mol |
| SAAEIDEDGTIRIVLSEEAVKNMSEEELKALAEELAKLLPPGAKVEIKIVKPKPVKEEKKLYDKDGKEVSAG [r14_312_TrROS_Hall] | 0.788 ± 0.15 kcal/mol | 0.0971 ± 0.054 kcal/mol | 1.19 ± 0.083 kcal/mol |
| SAAMLFEKKTGIKVDVSLVPPEQISQLPPSYTVTPEGDVVVVTTVTTLPLSSYPVKLPPVYDPNTLKLLSAG [r14_126_JUSTAS] | -0.0133 ± 0.11 kcal/mol | -0.376 ± 0.19 kcal/mol | 0.146 ± 0.12 kcal/mol |
| SAAPADNPVLVATLTVTVTRPVSFTSPDGSTGTVPETETRTLVLVADAGNDPEALERALELARRLAETVSAG [r14_830_TrMRF] | 3.51 ± 0.099 kcal/mol | 4.04 ± 0.076 kcal/mol | 2.73 ± 0.076 kcal/mol |
| SAAPGAEVIEEKEIEVGGYTVTIVYNKDTDTVTIFVRNPDGTITEFTIDADTLEITEVREIKLPPGVELSAG [r14_676_TrROS_Hall] | 3 ± 0.12 kcal/mol | 3.35 ± 0.06 kcal/mol | 2.24 ± 0.084 kcal/mol |
| SAATLPPGTKVLTLTVTVRVPPGVSVEDLAAALAAELRRRLGPGAKITVTVTYDPETDTLTVTVTVVLPPSA [r9_657_TrROS_Hall] | 4.38 ± 0.081 kcal/mol | 4.66 ± 0.078 kcal/mol | 3.53 ± 0.091 kcal/mol |
| SAAVITLETENVTATSTLLEDGSVLVDVVEFYEDGYVSVVKAVIGPDGEIKVVERVVFPVPPPVPPPDASAG [r14_42_TrMRF] | 2.36 ± 0.18 kcal/mol | 2.3 ± 0.094 kcal/mol | 2.49 ± 0.094 kcal/mol |
| SAAVPSDLTLTTLETKKEKFDDNEYTVVKSVLLRPGAPGATVTEYTTVYKGDKVVETKPSERTVSPALLSAG [r14_651_JUSTAS] | -0.0404 ± 0.15 kcal/mol | 0.209 ± 0.13 kcal/mol | -0.897 ± 0.27 kcal/mol |
| SADIKIDDIETQENPDGYEWYMITINFPDPKKFKEKLKKHGVNPEWDPNDPDQVEIWFPREDIQEILKLSAG [r14_777_TrROS] | 0.665 ± 0.36 kcal/mol | 0.884 ± 0.28 kcal/mol | 0.328 ± 0.21 kcal/mol |
| SADMVMFPMTGEFHFPGWRIKVEITLMFHFTPNGKFGPNFHPMIKIEIVPPPPPPKITEEEADKANENGSAG [r14_442_TrROS] | 3.59 ± 0.26 kcal/mol | 4.13 ± 0.19 kcal/mol | 3.03 ± 0.22 kcal/mol |
